Data on one substance can be found in patent US10093706.

Where two headings read alike, the source gives them in different places.

A word on the Kd: it is the concentration at which binding is half-saturated. Read a low Kd as a tighter complex.

Data set [1] has as its target hnRNP-E1 (PCBP1) wild-type (Homo sapiens) (UniProt Q15365). The conditions noted are these: Scatchard.
For data set [2], the target named is hnRNP-E1(C293S) (Homo sapiens) (UniProt Q15365). The note with it: no L-homocysteine; Scatchard.
In data set [3] the target is hnRNP-E1(G292A) G292A (Homo sapiens) (UniProt Q15365). The note with it: no L-homocysteine; Scatchard.
Chain of hnRNP-E1(G292A) G292A (Homo sapiens) (Q15365 whole entry A205V/G292A): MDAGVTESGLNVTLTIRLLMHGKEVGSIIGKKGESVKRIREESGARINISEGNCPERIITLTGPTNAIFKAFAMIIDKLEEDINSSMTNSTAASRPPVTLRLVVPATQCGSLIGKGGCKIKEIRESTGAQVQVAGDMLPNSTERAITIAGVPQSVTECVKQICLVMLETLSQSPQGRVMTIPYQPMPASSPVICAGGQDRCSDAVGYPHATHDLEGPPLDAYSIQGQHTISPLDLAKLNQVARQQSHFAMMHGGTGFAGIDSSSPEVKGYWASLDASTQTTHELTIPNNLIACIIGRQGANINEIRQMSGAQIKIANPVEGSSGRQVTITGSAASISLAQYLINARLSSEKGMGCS

Chain of hnRNP-E1 (PCBP1) wild-type (Homo sapiens) (Q15365 whole entry A205V): as the sequence (Q15365 whole entry A205V/G292A) above, with A292G counted along it
Chain of hnRNP-E1(C293S) (Homo sapiens) (Q15365 whole entry A205V/C293S): as the sequence (Q15365 whole entry A205V/G292A) above, with A292G, C293S counted along it

For the substance “18-nt folate receptor-alpha mRNA cis-element”, the Kd in data set [1] (10 uM L-homocysteine) came out at 0.89 nM; in data set [1] (50 uM L-homocysteine), 0.47 nM; in data set [1] (no L-homocysteine), 1.47 nM; in data set [2], 0.27 nM; in data set [3] it was 1.57 nM.
